tested on: Escherichia coli TOP10; assay: shrunken log2 fold change of peptide-encoding DNA abundance (4.5 h post-induction vs induction); higher = less antimicrobial activity (less host growth inhibition); details: time post-induction: 4.5 h; library: site-saturation at positions 5, 18, 19, 20
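Note: peptides expressed intracellularly from a pBAD plasmid library in pooled LB shake-flask culture, induced with 0.3% L-arabinose, DNA abundance read by NGS, three biological replicates, DESeq2 with apeglm shrinkage.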

Sequence | shrunken log2 fold change
RRIRGRPPRLPRPRPRPHGKPRP | 0.513
RRIRCRPPRLPRPRPRPGIMPRP | -0.594
RRIRMRPPRLPRPRPRPMFHPRP | -0.244
RRIRPRPPRLPRPRPRPIKCPRP | -0.358
RRIRFRPPRLPRPRPRPKQMPRP | 0.382
RRIRLRPPRLPRPRPRPHKDPRP | -0.697
RRIRARPPRLPRPRPRPFHTPRP | -0.0492
RRIRSRPPRLPRPRPRPPNVPRP | 0.0837
RRIRYRPPRLPRPRPRPNSTPRP | -1.01
RRIRHRPPRLPRPRPRPVMPPRP | 0.189
RRIRMRPPRLPRPRPRPSMGPRP | 0.0383
RRIRLRPPRLPRPRPRPCMVPRP | -0.365
RRIRPRPPRLPRPRPRPKIPPRP | -0.408
RRIRHRPPRLPRPRPRPPLRPRP | 0.287
RRIRNRPPRLPRPRPRPAAKPRP | -0.0209
RRIRSRPPRLPRPRPRPLDIPRP | 0.00915
RRIRVRPPRLPRPRPRPHSHPRP | -0.348
RRIRCRPPRLPRPRPRPVIMPRP | -0.604
RRIRRRPPRLPRPRPRPSVGPRP | 0.171
RRIRERPPRLPRPRPRPTIQPRP | -0.0576
RRIRCRPPRLPRPRPRPSNDPRP | -0.451
RRIRHRPPRLPRPRPRPAGRPRP | 0.29
RRIRDRPPRLPRPRPRPVSLPRP | -0.442
RRIRQRPPRLPRPRPRPAILPRP | 0.312
RRIRIRPPRLPRPRPRPTRQPRP | -0.00609

Sequence | shrunken log2 fold change
RRIRLRPPRLPRPRPRPPKDPRP | 0.137
RRIRRRPPRLPRPRPRPPLCPRP | 0.971
RRIRTRPPRLPRPRPRPLWGPRP | -0.0731
RRIRNRPPRLPRPRPRPDCIPRP | -0.194
RRIRCRPPRLPRPRPRPQMSPRP | -0.201
RRIRRRPPRLPRPRPRPTNFPRP | -0.125
RRIRFRPPRLPRPRPRPQYHPRP | -1.15
RRIRMRPPRLPRPRPRPDMNPRP | 2.25
RRIRSRPPRLPRPRPRPQLNPRP | -0.248
RRIRSRPPRLPRPRPRPMIGPRP | 0.0355
RRIRIRPPRLPRPRPRPCNHPRP | -0.232
RRIRQRPPRLPRPRPRPQYCPRP | 0.0332
RRIRSRPPRLPRPRPRPCHYPRP | -0.0214
RRIRARPPRLPRPRPRPHPVPRP | 0.277
RRIRQRPPRLPRPRPRPVKDPRP | -0.03
RRIRIRPPRLPRPRPRPTVHPRP | 0.0548
RRIRMRPPRLPRPRPRPFPRPRP | -0.0223
RRIRIRPPRLPRPRPRPGRMPRP | 0.198
RRIRRRPPRLPRPRPRPPDNPRP | 0.548
RRIRLRPPRLPRPRPRPEDLPRP | 0.14
RRIRVRPPRLPRPRPRPDYAPRP | -0.0204
RRIRCRPPRLPRPRPRPNNIPRP | -0.843
RRIRWRPPRLPRPRPRPFANPRP | -0.0747
RRIRNRPPRLPRPRPRPDRIPRP | -0.0387
RRIRMRPPRLPRPRPRPFFNPRP | -0.0839

Sequence | shrunken log2 fold change
RRIRVRPPRLPRPRPRPAHAPRP | 0.068
RRIRLRPPRLPRPRPRPEWNPRP | -0.083
RRIRMRPPRLPRPRPRPIIWPRP | -0.0321
RRIRQRPPRLPRPRPRPPNAPRP | 0.285
RRIRTRPPRLPRPRPRPKSYPRP | -0.364
RRIRCRPPRLPRPRPRPRMFPRP | 0.0907
RRIRMRPPRLPRPRPRPKWSPRP | 0.894
RRIRKRPPRLPRPRPRPGMEPRP | 0.0527
RRIRKRPPRLPRPRPRPENHPRP | -0.229
RRIRYRPPRLPRPRPRPCWHPRP | -0.0701
RRIRRRPPRLPRPRPRPTVQPRP | 0.113
RRIRMRPPRLPRPRPRPNKEPRP | 0.127
RRIRFRPPRLPRPRPRPSKCPRP | -0.26
RRIRNRPPRLPRPRPRPTFNPRP | -0.506
RRIRGRPPRLPRPRPRPYVYPRP | -0.0911
RRIRFRPPRLPRPRPRPENVPRP | -0.0124
RRIRRRPPRLPRPRPRPITDPRP | -0.101
RRIRLRPPRLPRPRPRPALLPRP | 0.295
RRIRQRPPRLPRPRPRPCIMPRP | -0.748
RRIRRRPPRLPRPRPRPQDMPRP | 0.0973
RRIRCRPPRLPRPRPRPISMPRP | -0.65
RRIRARPPRLPRPRPRPKNGPRP | 0.246
RRIRDRPPRLPRPRPRPQFWPRP | 0.345
RRIRLRPPRLPRPRPRPDCFPRP | 0.19
RRIRTRPPRLPRPRPRPQVLPRP | -0.0479

Sequence | shrunken log2 fold change
RRIRMRPPRLPRPRPRPAYKPRP | 0.0601
RRIRTRPPRLPRPRPRPKVEPRP | 0.12
RRIRSRPPRLPRPRPRPFVTPRP | -0.0434
RRIRMRPPRLPRPRPRPGHPPRP | 0.196
RRIRFRPPRLPRPRPRPADFPRP | -0.09
RRIRERPPRLPRPRPRPCVQPRP | -0.0665
RRIRERPPRLPRPRPRPHKGPRP | -0.194
RRIRGRPPRLPRPRPRPMKFPRP | 0.0112
RRIRFRPPRLPRPRPRPAQEPRP | 0.351
RRIRWRPPRLPRPRPRPPNEPRP | 0.424
RRIRTRPPRLPRPRPRPNMQPRP | -0.223
RRIRMRPPRLPRPRPRPRNDPRP | 0.193
RRIRWRPPRLPRPRPRPKQYPRP | -0.266
RRIRVRPPRLPRPRPRPGKRPRP | -0.00991
RRIRARPPRLPRPRPRPSVVPRP | -0.0244
RRIRGRPPRLPRPRPRPMVPPRP | 0.202
RRIRMRPPRLPRPRPRPDNMPRP | 0.0905
RRIRPRPPRLPRPRPRPTYVPRP | 0.0486
RRIRSRPPRLPRPRPRPNWPPRP | 0.278
RRIRPRPPRLPRPRPRPFYIPRP | -0.312
RRIRDRPPRLPRPRPRPDMAPRP | 0.219
RRIRERPPRLPRPRPRPQHHPRP | -0.771
RRIRRRPPRLPRPRPRPLWLPRP | -0.107
RRIRHRPPRLPRPRPRPDGLPRP | -0.0219
RRIRHRPPRLPRPRPRPNFEPRP | 0.00825

Sequence | shrunken log2 fold change
RRIRCRPPRLPRPRPRPVMIPRP | -0.0658
RRIRMRPPRLPRPRPRPYVSPRP | 0.013
RRIRTRPPRLPRPRPRPKEIPRP | -1.03
RRIRIRPPRLPRPRPRPKTDPRP | -0.292
RRIRHRPPRLPRPRPRPRLCPRP | 0.0797
RRIRKRPPRLPRPRPRPISEPRP | 0.213
RRIRCRPPRLPRPRPRPTMEPRP | -0.088
RRIRRRPPRLPRPRPRPFPQPRP | 0.441
RRIRWRPPRLPRPRPRPIHQPRP | 0.0226
RRIRGRPPRLPRPRPRPDIMPRP | 0.0438
RRIRIRPPRLPRPRPRPFYVPRP | -1.11
RRIRKRPPRLPRPRPRPSNNPRP | -0.0375
RRIRTRPPRLPRPRPRPKLAPRP | 0.163
RRIRVRPPRLPRPRPRPIMHPRP | -0.156
RRIRGRPPRLPRPRPRPGWIPRP | 0.117
RRIRPRPPRLPRPRPRPAAHPRP | 0.0385
RRIRIRPPRLPRPRPRPCAYPRP | -0.0396
RRIRHRPPRLPRPRPRPMCFPRP | -0.574
RRIRTRPPRLPRPRPRPMNKPRP | -0.373
RRIRSRPPRLPRPRPRPTYNPRP | -0.765
RRIRARPPRLPRPRPRPQGQPRP | -0.2
RRIRHRPPRLPRPRPRPYTNPRP | -0.461
RRIRQRPPRLPRPRPRPMTVPRP | -0.00149
RRIRRRPPRLPRPRPRPGWMPRP | 0.0476
RRIRARPPRLPRPRPRPGRNPRP | 0.419
